Results taken from US20070184522A1, “Cell death modulation via antagonists of Fasl and Fas activation” (University of Pittsburgh of the Commonwealth System of …, priority 2004, published 2007).

How the values were obtained:
Hepa 1-6 cells = assay: Fas-induced apoptosis in Hepa 1-6 cells (LDH activity assay); type: cell-based, mouse; details: for FasL induced apoptosis: serum deprived Hepa 1-6 cells, crosslinked mouse Fas ligand 1 μg/ml overnight, LDH
Method: For FIG. 4a, Jurkat cells (1.5×10^5) were overnight treated in triplicate with 5 ng/ml of crosslinked human Fas ligand with or without 5 μg/ml of recombinant AlphaMet or 1 μg/ml of the indicated polypeptides. Percent apoptosis was determined by Trypan Blue staining using a hemocytometer. The data are representative and were repeated at least four times. […] The 17 kDa fragment of cleaved Caspase 3 is visualized by this antibody. The blot was reprobed for β-actin as a loading control. For FIG. 4c, serum deprived Hepa 1-6 cells (3×10^5) were overnight treated with 1 μg/ml of crosslinked mouse Fas ligand with or without AlphaMet or the indicated polypeptide. Media were collected and centrifuged to pellet the dead cells. […] The data in FIG. 4c represents three independent experiments.
Apoptosis assay. Pre-washed Jurkat cells in RPMI 1640 medium containing 1% FBS were inoculated in 96-wells at a density of 10^5 cells per well. Apoptosis was induced by cross-linked human Fas-ligand (R&D Systems) at a concentration of 0.5 ng/ml or Anti-Fas (human, activating) clone CH11 (Upstate biotechnology) at a concentration of 500 ng /ml. Hepa 1-6 cells were overnight starved before induction of apoptosis. The apoptosis in Hepa 1-6 was induced by anti-mouse Fas antibody Jo2 (200 ng/ml) or human recombinant Fas-ligand. The extent of cell viability and apoptosis was determined by several methods such as Trypan Blue stain, flow cytometry, LDH assay, and Hoechst staining.

[1] = tested on: liver (hepatocyte apoptosis); assay: Jo2 (Fas agonist) induced liver apoptosis in Balb/c mice; type: in vivo; details: for percentage of apoptotic cells by TUNEL staining: Balb/c mice liver, Jo2, AlphaMet 100 micrograms or YLGA polypeptides 300 micrograms per mouse; for enzymatic activity of caspase-3 in liver lysates: compared to Jo2 only group
Method: For FIG. 5a, Balb/c mice (10 per group) were injected with Jo2 (2.5 μg/g of mouse body weight) in the presence of AlphaMet or polypeptides as indicated, and analyzed for the extent of hepatocyte apoptosis and liver damage by immunohisological and biochemical techniques. The percentage of TUNEL positive was determined in multiple liver lobes of each liver in random fields counting at least 500 hepatocytes in a double-blind manner. Frame A: Normal mouse liver; Frame B: Jo2 treated mouse liver; Frame C: Jo2 plus AlphaMet treated mouse; Frame D: Jo2 plus YLGA 12 mer; Frame E: Jo2 and YLGA tetramer treatment; Frame F: Jo2 and YLGA mutated AlphaMet, respectively. These studies were repeated three times with identical outcome. FIG. 5b graphically presents the quantification of hepatocyte apoptosis TUNEL positive nuclei. The data were analyzed by One-way ANOVA and P<0.05 was considered significant. For FIG. 5c, an equal amount of livers were subjected to Caspase 3 activity assay using DEVD-AFC as a substrate and DEVD-CHO as an inhibitor, as recommended by the manufacturer. The data are the mean and SE and were repeated in three independent experiments. The data were analyzed by One-way ANOVA and P<0.05 was considered significant.
Animal studies. Male Balb/c mice weighing 30 grams were purchased from Jackson Laboratory and used according to an IACUC approved protocol. Induction of liver apoptosis and determination of Caspase 3 activity and histological evaluation were performed as described previously (Wang et al., 2002). Animals (10 per group) were anesthetized by isoflurane and injected with Jo2 (Pharmingen 2.5 microgram/gram body weight) with or without AlphaMet (100 micrograms recombinant AlphaMet or 300 micrograms of synthetic YLGA polypeptides) in a total of 100 micro liters of saline per mouse. Control groups (N=10 per group) consisted of saline only, Jo2 only, and Jo2 plus mutated AlphaMet or scrambled polypeptide. During the experiment which lasted approximately 6 hours, animals were closely monitored every 10 to 15 minutes and if they appeared to be moribund were immediately sacrificed and liver tissue and was removed for biochemical and histological studies.
It is well known in the literature that the liver is one of the most sensitive organs to Fas mediated apoptosis. Injection of the Fas agonist Jo2 antibody, which causes mice to experience Fas aggregation resulting in massive hepatocyte apoptosis, fulminant hepatic failure, and death within hours. This model was used to test if AlphaMet and the YLGA polypeptides could protect livers from Fas-induced apoptosis. Given the fact that AlphaMet blocked Fas trimerization and Fas micro-aggregation, and the fact that Fas oligomerization is essential in Fas signaling, it was reasonable to suspect that AlphaMet could block the Fas mediated apoptosis in vivo. Balb/c mice were used in these experiments. Groups of animals (n=10) were injected systemically with Jo2 ([…] of body weight) with or without purified recombinant AlphaMet, synthetic 12 mer YLGA polypeptide (HHIYLGATNYIY, SEQ ID NO:26), or their control counterparts (N-terminally truncated AlphaMet, YLGA mutated recombinant AlphaMet or scrambled 12 mer polypeptide) as described in the materials and methods. Mice were sacrificed within 6 hours or sooner if they were moribund and their livers were subjected to biochemical determination of Caspase-3 activity and histological analyses (i.e. TUNEL staining).

HHIYLGATNYIY [12 mer]
FasL induced apoptosis (Hepa 1-6 cells): significantly inhibited FasL induced apoptosis | percentage of apoptotic cells by TUNEL staining [1]: 25% | enzymatic activity of caspase-3 in liver lysates ([1]; Balb/c mice): significant reduction

YLGA [YLGA 4 mer]
FasL induced apoptosis (Hepa 1-6 cells): significantly inhibited FasL induced apoptosis | percentage of apoptotic cells by TUNEL staining [1]: 40%

B1: alpha subunit of Met (AlphaMet), amino acid residues 1 to 306, His-tagged (receptor, mouse)
chain: MKAPTVLAPGILVLLLSLVQRSHGECKEALVKSEMNVNMKYQLPNFTAETPIQNVVLHGHHIYLGATNYIYVLNDKDLQKVSEFKTGPVLEHPDCLPCRDCSSKANSSGGVWKDNINMALLVDTYYDDQLISCGSVNRGTCQRHVLPPDNSADIQSEVHCMFSPEEESGQCPDCVVSALGAKVLLSEKDRFINFFVGNTINSSYPPGYSLHSISVRRLKETQDGFKFLTDQSYIDVLPEFLDSYPIKYIHAFESNHFIYFLTVQKETLDAQTFHTRIIRFCSVDSGLHSYMEMPLECILTEKRRKRHHHHHH
apoptosis induced by the Fas agonist Jo2 (Hepa 1-6 cells; Hepa 1-6 cells): efficiently inhibited | resistance to Fas killing of stable cell lines expressing the protein (Hepa 1-6 cells; Hepa 1-6 stable lines versus control vector clones): dramatic resistance to Fas killing | FasL induced apoptosis (Hepa 1-6 cells): significantly inhibited FasL induced apoptosis | percentage of apoptotic cells by TUNEL staining [1]: 18% | liver hemorrhage (gross and microscopic) ([1]; Balb/c mice, Jo2 injection, within 6 hours): little or no sign of hemorrhage | enzymatic activity of caspase-3 in liver lysates ([1]; Balb/c mice): significant reduction
